Reference: patent US12565520B2, “Chemically-stabilized allosteric modulators of leucine-rich repeat kinase 2 (LRRK2)” (UNIVERSITY OF GEORGIA RESEARCH FOUNDATION, INC., priority 2020, dated 2026)
Positions of bridges follow the written chain, without caps; N, C: chain ends. Non-standard residues stand in square brackets, D forms with d. Primed or numbered codes have the meaning given here. PEG3″ = N-terminal PEG3 linker; FAM″ = 5,6-carboxyfluorescein; S5 = C=CCCC[C@](C)(N)C(=O)O; Nle = CCCC[C@H](N)C(=O)O

Columns and labels:
MBP-tagged CORB [1] = molecular target: T1, MBP-tagged CORB (human, UniProt Q5S007 1672-1840); assay: fluorescence polarization, 10 nM FAM-labeled peptide, MBP-CORB titrated
T1 construct: range 1672-1840; Purified from E. coli BL21(DE3); also called C-terminal part of the COR domain; His6-MBP-tagged COR-B; not shown: N-terminal His6-MBP tag (pDEST-566)
Protocol: Fluorescence Polarization (FP) Assays. […] Each FAM-labeled peptide was plated at a final in-well concentration of 10 nM in 384-well microtiter plates. 1:2 dilutions of the protein were then performed from a concentration range of 5 μM to 1 nM. For each peptide: protein interaction, a range of at least 10 protein concentrations was examined, and each concentration was performed in triplicate. The assay was performed in FP buffer (20 mM MOPS pH 7, 150 mM NaCl, and 0.005% CHAPS) at room temperature. The peptide:protein mixture was incubated at room temperature for 2 hours with readings taken every 30 minutes. The final readings were obtained at 2 hours.
The binding affinities of these two peptides towards LRRK2 was measured using fluorescence polarization (FP). Two MBP-tagged protein constructs, CORB and RocCOR, were purified and plated in concentrations ranging from 5 μM to 1 nM along with 10 nM FAM-labeled peptide, 2 mM GTP and 10 mM MgCl_2.

[2] = molecular target: T2, MBP-tagged RocCOR LRRK2 protein (human, UniProt Q5S007 1293-1840, limits assumed); assay: fluorescence polarization, 10 nM FAM-labeled peptide
T2 construct: domain: RocCOR; Purified from E. coli; FP done in the presence of GTP and MgCl2; also called His6-MBP-tagged RocCOR; not shown: N-terminal His6-MBP tag
T2 sequence (looked up): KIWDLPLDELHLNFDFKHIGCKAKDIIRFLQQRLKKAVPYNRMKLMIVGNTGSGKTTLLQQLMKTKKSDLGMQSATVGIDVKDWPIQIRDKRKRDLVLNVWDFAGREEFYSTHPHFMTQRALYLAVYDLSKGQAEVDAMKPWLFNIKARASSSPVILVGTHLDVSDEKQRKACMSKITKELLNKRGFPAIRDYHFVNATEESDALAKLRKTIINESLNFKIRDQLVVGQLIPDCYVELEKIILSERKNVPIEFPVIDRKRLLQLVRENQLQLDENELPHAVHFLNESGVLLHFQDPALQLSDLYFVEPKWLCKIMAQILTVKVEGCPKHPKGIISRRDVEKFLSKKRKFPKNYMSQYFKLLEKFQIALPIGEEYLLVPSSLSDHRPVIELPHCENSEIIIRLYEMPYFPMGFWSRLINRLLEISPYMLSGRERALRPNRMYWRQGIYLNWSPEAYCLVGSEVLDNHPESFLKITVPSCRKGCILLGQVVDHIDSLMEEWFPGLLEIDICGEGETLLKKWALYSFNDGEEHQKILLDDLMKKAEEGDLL

MBP-tagged CORB [3] = molecular target: T1, MBP-tagged CORB; assay: as above

B1: FAM-labeled LCIP1 (peptide)
peptide: {FAM″-PEG3″}-KGEGE[S5]LLK[S5]WK-NH2
modifications: staple 6-10
notes: 16
Kd (MBP-tagged CORB [1]): 1000 nM

B2: FAM-labeled LRIP4 scramble (peptide)
peptide: {FAM″-PEG3″}-Q[Nle]DKAESKNKERKLC[S5]TIK[S5]-NH2
modifications: staple 16-20
notes: Scrambled control of LRIP4; also called scrambled peptide control
binding result [2]: no binding (tested: protein 5 µM to 1 nM)

B3: FAM-labeled LCIP1 scramble (peptide)
peptide: {FAM″-PEG3″}-GKWEK[S5]GEL[S5]KL-NH2
modifications: staple 6-10
notes: Scrambled control of LCIP1; also called scrambled peptide control
binding result (MBP-tagged CORB [3]): no binding (tested: protein 5 µM to 1 nM)
